Consider 42 molecules from patent US20120093811A1 (published 2012).

Sequences and labels used below:
T1: Source 1 VEGF-D, mature dimeric recombinant human VEGF-D (CSIRO) (human, UniProt O43915 89-205)
T1 sequence: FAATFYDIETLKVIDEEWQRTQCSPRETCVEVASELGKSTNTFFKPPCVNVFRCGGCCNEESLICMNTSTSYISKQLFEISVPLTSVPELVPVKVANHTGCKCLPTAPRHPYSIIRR

T2: Source 2 VEGF-D, purified recombinant human VEGF-D monomer (R&D Systems, Catalog Number 622-VD/CF) (human, UniProt O43915 93-201)
T2 sequence: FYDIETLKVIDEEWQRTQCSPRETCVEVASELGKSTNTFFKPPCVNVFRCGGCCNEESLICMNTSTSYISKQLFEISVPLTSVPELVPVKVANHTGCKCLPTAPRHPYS

T3: VEGF-D (recombinant human; source not given) (human, UniProt O43915 89-205, limits assumed)
T3 construct: also used here as target of IC50 values averaged over Source 1 and Source 2; also called vascular endothelial growth factor-D
T3 sequence: T1 sequence

B1: humanized IgG antibody derived from clone HX28 (antibody, V domains shown)
VH: QVQLVQSGAKVKQPGASVKASCKASGYTFTGYNMYWVRQAPGQGLEWMGYIDPYSGDTTYNQKFKGRVTMTTDTSTSTAYMELRSLRSDDTAVYYCARTSYYGGMDYWGRGTLVTVAS
VL: DIVMTQTPLSSPVTLGQPASISCRSSQSLVHSNGNTYLHWLQQRPGQPPRLLIYKVSNRFSGVPGRFSGSGAGTDFTLKISRVEAEDVGVYYCSQSTHVPRTFGQGTKLEIKR
notes: IgG
B2: scFv clone AA16 (scFv)
scFv: QAQLVQSGAEVKQPGASVKVSCKASGYTFTGYNMYWVRQAPGQGLEWMGYIDPYNGDTTYNQKFKGRVTMTTDTSTSTAYMELRSLRSDDTAVYYCARTSYYGGMDYWGRGTLVTVASGGGASGGGGSGGGGSDIVMTQTPLSSPVTLGQPASISCRSSQSLVHSNGNTYLHWLQQRPGQPPRLLIYKVSNRFSGVPDRFSGSGAGTDFTLKISRVEAEDVGVYYCSQSTHVPRTFGQGTKLEIKR
B3: scFv clone G37 (scFv)
scFv: B2 scFv with A2V, Q3R, S100G
B4: scFv clone BF36 (scFv)
scFv: B2 scFv with A2V, K63R, E82K, T112A, K212R
B5: scFv clone I71 (scFv)
scFv: B2 scFv with A2V, K19R
B6: scFv clone HX28 (scFv)
scFv: B2 scFv with A2V, E10K, V20A, N55S, D198G
B7: scFv clone DD76 (scFv)
scFv: B2 scFv with A2V, E10K, V20A, S75N
B8: scFv clone DC56 (scFv)
scFv: B2 scFv with A2V, E10K, K12R, V20A
B9: scFv clone G75 (scFv)
scFv: B2 scFv with A2V, A40V, T112A
B10: scFv clone W25 (scFv)
scFv: B2 scFv with A2V, E46G
B11: scFv clone Z23 (scFv)
scFv: B2 scFv with A2V, E46G, G131R
notes: G131R lies in the scFv linker
B12: scFv clone DD17 (scFv)
scFv: B2 scFv with A2V, E10K, S17G, V20A
B13: scFv clone CZ13 (scFv)
scFv: B2 scFv with A2V, V5A, E10K, V20A
B14: scFv clone HH41 (scFv)
scFv: B2 scFv with A2V, E82K, S165G
B15: scFv clone G11 (scFv)
scFv: B2 scFv with A2V, D198G
B16: scFv clone HW78 (scFv)
scFv: B2 scFv with A2V, S25R, S77G, E82K
B17: scFv clone CJ17 (scFv)
scFv: B2 scFv with A2V, K23E, E82K
B18: scFv clone AC75 (scFv)
scFv: B2 scFv with A2V, M81V
B19: scFv clone CK61 (scFv)
scFv: B2 scFv with A2V, E10K, E82K
B20: scFv clone H44 (scFv)
scFv: B2 scFv with A2V, E46G, G131R, V221M
notes: G131R lies in the scFv linker
B21: scFv clone I84 (scFv)
scFv: B2 scFv with A2V, A40V
B22: scFv clone DC64 (scFv)
scFv: B2 scFv with A2V, E10K, V18M, V20A
B23: scFv clone CW16 (scFv)
scFv: B2 scFv with A2V, D89G, V146A
B24: scFv clone CZ24 (scFv)
scFv: B2 scFv with A2V, E10K, S17N, V20A
B25: scFv clone K89 (scFv)
scFv: B2 scFv with A2V, S25R
B26: scFv clone G38 (scFv)
scFv: B2 scFv with A2V, A40V, V114A
B27: scFv clone Q30 (scFv)
scFv: B2 scFv with A2V, T112A
B28: scFv clone DE03 (scFv)
scFv: B2 scFv with A2V, E10K, V20A, S25G
B29: scFv clone CZ77 (scFv)
scFv: B2 scFv with A2V, E10K, V20A, K65R
B30: scFv clone HH69 (scFv)
scFv: B2 scFv with A2V, E10K, V20A, N55S, S144G, Q238R
B31: scFv clone V37 (scFv)
scFv: B2 scFv with A2V, A40V
B32: scFv clone CI67 (scFv)
scFv: B2 scFv with A2V, V68A, E82K, T230A
B33: scFv clone HU75 (scFv)
scFv: B2 scFv with A2V, E82K, S144G, Q238R
B34: scFv clone W36 (scFv)
scFv: B2 scFv with A2V, E46G
B35: scFv clone CX03 (scFv)
scFv: B2 scFv with A2V, K19T, D198G
B36: scFv clone DA74 (scFv)
scFv: B2 scFv with A2V, V5A, E10K, V20A, F193S
B37: scFv clone Z49 (scFv)
scFv: B2 scFv with A2V, D89G
B38: scFv clone DB29 (scFv)
scFv: B2 scFv with A2V, E10K, V20A, S144G
B39: scFv clone D69 (scFv)
scFv: B2 scFv with A2V, Y95H, D198G
B40: scFv clone DD25 (scFv)
scFv: B2 scFv with A2V, E10K, V20A, M48V
B41: scFv clone P88 (scFv)
scFv: B2 scFv with A2V, T138I
B42: scFv clone H71 (scFv)
scFv: B2 scFv with A2V, K19R, T69A, S158T

Numbering of substitutions follows the chain as printed.

The target in the first experiment is T1, Source 1 VEGF-D, mature dimeric …. Kind of experiment: cell-based or functional assay.
As to B1, the “rank in the VEGFR-3-Ba/F3 bioassay” value was 1 rank.

The next experiment concerns the target T2, Source 2 VEGF-D, purified recombinant …. Kind of experiment: cell-based or functional assay.
With B1, the “rank in the VEGFR-3-Ba/F3 bioassay” value turned out to be 1 rank.

In the next experiment the target is T1, Source 1 VEGF-D, mature dimeric …. Kind of experiment: SPR Protocol A, KD against that of Ig-1A. On the procedure: (§1) Protocol A: The first assay format, Protocol A, used an assay system where IgGs were captured on a biosensor chip surface using an anti-human IgG (Fc) antibody and the Source 1 VEGF-D dimer run over the chip as the analyte in solution. This ensured that all IgG molecules were presented to the antigen in an active orientation.
(§2) The SPR protocol was slightly modified to compensate for the dimeric nature of the VEGF-D. Ig-1A or IgG variants were analyzed using an anti-human capture kit as described for Anti-human IgG (Fc) capture above, except that 1000 RU of the IgG or IgG variant was captured on the anti-human chip surface. […] The kinetics generated using this approach are accurate within the experimental parameters set. This standard assay protocol is best suited to studying 1:1 interactions and thus, may not be ideal for analyzing binding between the IgG variants and the VEGF-D dimer. In light of this, Protocol B was also used.
Turning to B1, the “Fold-improvement with respect to Ig-1A” value was determined as 1.8 fold.

The next experiment concerns the target T3, VEGF-D (recombinant human; source not …). Kind of experiment: SPR (BIAcore) off-rate ranking of scFv clones. On the procedure:
Screening based on scFv binding properties involved surface plasmon resonance (SPR) measurements with a BIAcore™ biosensor. scFv variants were expressed in 200 μL E. coli cultures and the supernatants used to generate crude off-rate only kinetics, which were assessed “relative” to 1A, or other variants.
On the technique in general: Surface plasmon resonance follows binding to a sensor surface in real time, without labels.
Take B2: the koff – broadly, the first-order rate constant of dissociation – was 0.00795 s⁻¹.
Still for that read-out and setting: next, B3: 0.00586 s⁻¹.
Turning to B4, the koff worked out at 0.00362 s⁻¹.
With B5, the koff turned out to be 0.00661 s⁻¹.
Take B6: the koff was found to be 0.00643 s⁻¹.
Same read-out and setting: with B7 the figure was 0.00637 s⁻¹.
For B8, the koff was 0.00723 s⁻¹.
Same read-out and setting: with B9 the figure was 0.0072 s⁻¹.
The same measure, in the same setting: with B10 the figure was 0.0046 s⁻¹; with B11, 0.00556 s⁻¹.
Consider B12, for which the koff amounted to 0.0091 s⁻¹.
Consider B13, for which the dissociation rate constant (koff) turned out to be 0.00826 s⁻¹.
As for B14, the koff is 0.00104 s⁻¹.
B15: the koff came out at 0.00464 s⁻¹.
As to B16, the koff came out at 0.00189 s⁻¹.
For B17, the koff was determined as 0.00291 s⁻¹.
For the molecule B18, the koff was 0.00637 s⁻¹.
For B19, the off-rate (koff) is 0.00522 s⁻¹.
Regarding B20, the koff turned out to be 0.00657 s⁻¹.
In the case of B21, the koff stood at 0.00738 s⁻¹.
Still for that read-out and setting: next, B22: 0.00738 s⁻¹.
Same read-out and setting: next, B23: 0.00726 s⁻¹; B24: 0.00759 s⁻¹; B25: 0.00403 s⁻¹.
With B26, the off-rate constant (koff) stood at 0.00772 s⁻¹.
Same read-out and setting: with B27 the figure was 0.0072 s⁻¹; with B28, 0.00798 s⁻¹; with B29, 0.00408 s⁻¹.
B30: the koff was found to be 0.00212 s⁻¹.
Still for that read-out and setting: next, B31: 0.00794 s⁻¹; B32: 0.00379 s⁻¹.
The same measure, in the same setting: with B33 the figure was 0.00181 s⁻¹; with B34, 0.00611 s⁻¹; with B35, 0.00739 s⁻¹.
The same measure, in the same setting: next, B36: 0.00424 s⁻¹; B37: 0.00497 s⁻¹; B38: 0.00575 s⁻¹.
B39: the koff was 0.00341 s⁻¹.
Same read-out and setting: with B40 the figure was 0.00373 s⁻¹; with B41, 0.00785 s⁻¹; with B42, 0.00653 s⁻¹.

The next experiment concerns the target T1, Source 1 VEGF-D, mature dimeric …. The experiment can be described thus: SPR Protocol A: IgG captured by anti-human Fc, VEGF-D dimer as analyte. The method, then:
as §1, §2
Turning to B1, the Kd (commonly a measure of binding affinity in units of concentration) was 0.383 nM; the koff amounted to 0.00014 s⁻¹; the kon (as a rule, a measure of how fast the partners come together) amounted to 360000 M⁻¹ s⁻¹.
